± gives the standard deviation of the averaged measurements.
B1: library; a variant is named by its letters at N, in order (parent)
chain: GCUGUCACCGAGAAACUGUGAAGUAUAUCUUAAACCUGGGCACUUAAAAGAUAUAUGGAGUUAGUAGUGCAACCUGCUCGGUCUGAUGAGUCCNNNNNNGGACGAAACAGC

Columns and labels:
[1] = variants of: B1; assay: FACS-Seq fitted mean relative fluorescence mCherry/BFP without ligand (log10 relative fluorescence); HEK293T; ligand: cyclic di-GMP (c-di-GMP-II aptamer); higher = higher reporter protein expression; details: ligand present: no
Procedure, shortened: (§1)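 Sorting into 6 bins by mCherry/BFP followed 48 h of incubation with or without ligand. The cells were enriched HEK293T libraries lentivirally bearing an mCherry reporter with the ribozyme switch and an EF1α-BFP marker, and bin genomic DNA was PCR-amplified, barcoded and sequenced on MiSeq. Fluorescence is the fitted normal mean of the bin counts. Means were fitted on log10(mCherry/BFP), scaled to five spiked-in control ribozymes.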

[2] = variants of: B1; assay: normalized RNA/DNA level without ligand (relative to sTRSVctl = 100) (log10 (% of sTRSVctl)); HEK293T; ligand: cyclic di-GMP (c-di-GMP-II aptamer); higher = less ribozyme self-cleavage, higher mRNA level; details: reporter: mCherry (pCS4076), ligand present: no
Procedure, shortened: (§2)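 Library plasmids encoding reporter-linked ribozyme switches (mCherry, or eGFP for some folinic acid experiments) were transfected into HEK293T at 4 µg per 6-well well. Ligand, when used, was added 1 h before transfection. Total RNA was extracted with EDTA 72 h later, then reverse-transcribed, amplified, barcoded and sequenced. RNA level was RNA reads over DNA reads, divided by a spiked-in non-cleaving control (or the top 25 sequences), ×100, log10; only sequences with ≥100 DNA reads were kept.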

[3] = variants of: B1; assay: FACS-Seq fitted mean relative fluorescence mCherry/BFP with ligand (log10 relative fluorescence); HEK293T; ligand: cyclic di-GMP (c-di-GMP-II aptamer); ligand concentration (+) FACS-Seq: 1 mM; higher = higher reporter protein expression; details: ligand present: yes
Procedure, shortened: as §1

[4] = variants of: B1; assay: normalized RNA/DNA level with ligand (relative to sTRSVctl = 100) (log10 (% of sTRSVctl)); HEK293T; ligand: cyclic di-GMP (c-di-GMP-II aptamer); ligand concentration (+) RNA-Seq: 1 mM; higher = less ribozyme self-cleavage, higher mRNA level; details: reporter: mCherry (pCS4076), ligand present: yes
Procedure, shortened: as §2

Variant	FACS-Seq fitted mean (log10) [1]	normalized RNA/DNA level without ligand (log10) [2]	FACS-Seq fitted mean (log10) [3]	normalized RNA/DNA level with ligand (log10) [4]
CGACAA	-0.57 ± 0.068	1.29 ± 0.15	-0.273 ± 0.0065	1.54 ± 0.097
GCUCAU	-0.503 ± 0.042	1.66 ± 0.0087	-0.178 ± 0.097	1.78 ± 0.1
AGCUGC	-0.105 ± 0.077	1.74 ± 0.044	0.255 ± 0.092	1.87 ± 0.14
UCUGUA	-0.293 ± 0.01	1.57 ± 0.089	0.0285 ± 0.0098	1.77 ± 0.041
UGAACG	-0.401 ± 0.086	1.74 ± 0.033	-0.0168 ± 0.22	1.84 ± 0.11
GGAGGC	0.132 ± 0.076	1.6 ± 0.065	0.234 ± 0.067	1.79 ± 0.072
AGCGUG	-0.586 ± 0.017	1.6 ± 0.017	-0.279 ± 0.04	1.78 ± 0.14
AGCGUC	-0.71 ± 0.022	1.78 ± 0.028	-0.542 ± 0.044	1.9 ± 0.15
UGAGUC	-0.147 ± 0.039	1.7273 ± 0.0012	0.117 ± 0.074	1.87 ± 0.14
UGAGUG	-0.0499 ± 0.13	1.7246 ± 0.00091	0.259 ± 0.047	1.83 ± 0.091
UCUUGA	-0.685 ± 0.031	1.702 ± 0.0063	-0.542 ± 0.027	1.84 ± 0.14
AGAAUU	0.202 ± 0.13	1.65 ± 0.072	0.346 ± 0.074	1.8 ± 0.12
AGAAUG	-0.367 ± 0.045	1.48 ± 0.12	-0.126 ± 0.14	1.68 ± 0.043
AGAAUC	-0.291 ± 0.023	1.63 ± 0.06	-0.0843 ± 0.044	1.78 ± 0.073
UGACUC	-0.0587 ± 0.12	1.726 ± 0.0085	0.268 ± 0.025	1.86 ± 0.12
AGAAGG	-0.204 ± 0.074	1.5 ± 0.072	0.0586 ± 0.061	1.69 ± 0.064
AGAAGA	-0.764 ± 0.056	1.36 ± 0.023	-0.515 ± 0.035	1.57 ± 0.14
AGCCAA	-0.274 ± 0.071	1.53 ± 0.072	-0.0148 ± 0.057	1.73 ± 0.053

Variant	FACS-Seq fitted mean (log10) [1]	normalized RNA/DNA level without ligand (log10) [2]	FACS-Seq fitted mean (log10) [3]	normalized RNA/DNA level with ligand (log10) [4]
AGCUCG	-0.0835 ± 0.12	1.74 ± 0.095	0.217 ± 0.076	1.88 ± 0.039
UGAUAU	-0.406 ± 0.087	1.649 ± 0.0089	-0.0482 ± 0.1	1.82 ± 0.08
UGAUAC	-0.0926 ± 0.067	1.69 ± 0.02	0.197 ± 0.054	1.8 ± 0.12
UGAUAG	-0.125 ± 0.093	1.696 ± 0.015	0.191 ± 0.081	1.83 ± 0.12
AGCAUG	-0.472 ± 0.038	1.53 ± 0.031	-0.236 ± 0.053	1.71 ± 0.055
UCUGGU	-0.364 ± 0.019	1.66 ± 0.049	-0.0436 ± 0.031	1.81 ± 0.044
AGAAAG	-0.223 ± 0.077	1.5 ± 0.058	0.0417 ± 0.031	1.69 ± 0.1
AGAAAC	0.0659 ± 0.072	1.617 ± 0.0019	0.343 ± 0.052	1.8 ± 0.12
AGAAAA	-0.765 ± 0.013	1.42 ± 0.084	-0.587 ± 0.043	1.61 ± 0.089
UGAAGU	-0.24 ± 0.081	1.59 ± 0.024	0.0885 ± 0.12	1.79 ± 0.12
CGAAAA	-0.423 ± 0.02	1.26 ± 0.084	-0.315 ± 0.07	1.47 ± 0.1
CGAAAC	-0.432 ± 0.051	1.62 ± 0.048	-0.267 ± 0.02	1.77 ± 0.097
CCUUUA	-0.242 ± 0.11	1.38 ± 0.062	0.149 ± 0.0049	1.64 ± 0.1
AGACGA	-0.409 ± 0.019	1.54 ± 0.063	-0.212 ± 0.013	1.73 ± 0.12
AGACGC	-0.232 ± 0.099	1.65 ± 0.066	-0.0488 ± 0.032	1.81 ± 0.098
AGACGU	-1.017 ± 0.0037	1.573 ± 0.012	-0.759 ± 0.072	1.75 ± 0.13
ACUGAU	-0.368 ± 0.075	1.43 ± 0.11	-0.128 ± 0.13	1.62 ± 0.11
ACUGAA	-0.493 ± 0.087	1.43 ± 0.09	-0.161 ± 0.014	1.64 ± 0.074

Reference: the supplement of paper PMC6757056
